Values of other authors, collected in article PMC8467547.

Tests used:
IFNAR1 (Homo sapiens) = IFNAR1 (Homo sapiens) (UniProt P17181)
IFNAR2 (Homo sapiens) = IFNAR2 (Homo sapiens) (UniProt P48551)
Sequence of UniProt P48551 (P48551 27-243): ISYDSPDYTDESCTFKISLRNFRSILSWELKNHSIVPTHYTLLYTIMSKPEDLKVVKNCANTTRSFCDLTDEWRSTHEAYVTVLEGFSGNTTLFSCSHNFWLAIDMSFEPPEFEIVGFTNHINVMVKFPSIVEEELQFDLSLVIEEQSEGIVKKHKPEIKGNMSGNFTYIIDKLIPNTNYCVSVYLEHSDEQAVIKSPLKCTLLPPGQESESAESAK

Sequence of UniProt P17181 (P17181 28-436): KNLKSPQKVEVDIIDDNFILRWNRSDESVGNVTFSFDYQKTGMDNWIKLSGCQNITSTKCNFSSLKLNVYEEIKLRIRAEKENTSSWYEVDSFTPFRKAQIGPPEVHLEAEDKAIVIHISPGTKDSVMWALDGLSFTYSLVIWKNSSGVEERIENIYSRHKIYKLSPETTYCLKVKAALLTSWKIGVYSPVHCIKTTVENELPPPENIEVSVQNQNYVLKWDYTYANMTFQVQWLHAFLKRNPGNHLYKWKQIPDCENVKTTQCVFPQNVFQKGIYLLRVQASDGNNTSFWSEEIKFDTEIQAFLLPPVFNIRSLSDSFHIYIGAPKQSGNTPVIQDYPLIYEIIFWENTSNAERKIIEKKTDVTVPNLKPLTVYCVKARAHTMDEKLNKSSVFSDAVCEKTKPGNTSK

IFN-beta (from UniProt P01574)
Kd (IFNAR1 (Homo sapiens)): 100 nM
Kd (IFNAR2 (Homo sapiens)): 0.2 nM
